{"source": "patent US20260092084A1", "about": "“PEPTIDE AND ASSEMBLY OR COMPOSITION CONTAINING SAID PEPTIDE” (priority 2022, published 2026)", "key": {"[1]": {"test": "Average particle diameter of peptide assembly by dynamic light scattering", "type": "physicochemical", "conditions": "10 mM HEPES, 150 mM NaCl buffer (pH 7); 40 mM DMSO stock diluted 100-fold; stood overnight; 25° C.; main peak of scattering intensity", "experimental": "5 mg of each of the peptides of Examples 1-1 to 1-5 and Reference Examples 1-1 to 1-8 was dissolved in dimethyl sulfoxide (DMSO) to provide a stock solution (40 mM). To a 10 mM HEPES and 150 mM NaCl buffer (pH 7) under stirring with a micromixer (E-36, Taitec Corporation), 4 μL of the stock solution was dropped to be diluted 100-fold. The dilution was vortexed and then left to stand still at room temperature overnight. Then, 200 μL of the dilution was used as a measurement sample and measurement of particle diameter distribution was performed at 25° C. by dynamic light scattering with Litesizer 500 (Anton Paar GmBH). The results determined by defining the main peak of a scattering intensity as the average particle diameter of an assembly are shown in Table 3. Provided that, when a polydispersity index was more than 20%, the main peak was determined with further reference to a volume-based particle diameter distribution."}, "[2]": {"test": "Pyrene fluorescence probing, critical aggregation concentration", "type": "physicochemical", "conditions": "pyrene probe 0.1 μM in PBS, 24 hours, room temperature; inflection point of FIG. 5", "experimental": "Fluorescence probing has hitherto been widely used as a technique for measuring the critical micellar concentration (CMC) of a surfactant solution. When hydrophobic fluorescent molecules are added to an aqueous solution of a surfactant and excited, week fluorescence is generated from the fluorescent molecules dispersed in the solution under a state in which the concentration of the surfactant is low. Meanwhile, the concentration of the surfactant is more than the CMC, the hydrophobic fluorescent molecule is incorporated into a micelle surrounded by hydrophobic groups of the surfactant (hydrophobic environment) and emits strong fluorescence. In this experimental example, a change in fluorescent property with a change in peptide concentration was investigated by using pyrene as a fluorescence probe and using a peptide instead of the surfactant. […]\n(3) One hundred fifty microliter of the reaction solution was transferred to each well of a plate (Non-Treated Black Polystyrene 96-well plate (Corning 3694)). […] The peak value of a fluorescence intensity (384 nm) was plotted against a peptide concentration (logarithmic value).\nThis increased fluorescence intensity means formation of a peptide assembly that provides a hydrophobic environment capable of encapsulating pyrene. […] The peptides of Examples 1-2 and 1-5 each had approximately the same fluorescence intensity up to 0.1 mM."}}, "note": "Square brackets hold non-standard residues; d marks the D form. Ends that are not written are not given here. * marks the point of attachment. pS = N[C@@H](COP(=O)(O)O)C(=O)O; Tfa = O=C(C(F)(F)F)*"}
{"substance": "DSpSEEKW-LLELLELL-RRK(Tfa)RR (DS[pS]EEKWLLELLELLRRK(Tfa)RR-NH2; N-terminus assumed; SMILES CC(C)C[C@H](NC(=O)[C@H](CC(C)C)NC(=O)[C@H](CCC(=O)O)NC(=O)[C@H](CC(C)C)NC(=O)[C@H](CC(C)C)NC(=O)[C@H](CCC(=O)O)NC(=O)[C@H](CC(C)C)NC(=O)[C@H](CC(C)C)NC(=O)[C@H](Cc1c[nH]c2ccccc12)NC(=O)[C@H](CCCCN)NC(=O)[C@H](CCC(=O)O)NC(=O)[C@H](CCC(=O)O)NC(=O)[C@H](COP(=O)(O)O)NC(=O)[C@H](CO)NC(=O)[C@@H](N)CC(=O)O)C(=O)N[C@@H](CCCNC(=N)N)C(=O)N[C@@H](CCCNC(=N)N)C(=O)N[C@@H](CCCCNC(=O)C(F)(F)F)C(=O)N[C@@H](CCCNC(=N)N)C(=O)N[C@@H](CCCNC(=N)N)C(N)=O) [Example 1-1]", "values": [{"measurement": "Average particle diameter", "setting": "[1]", "value": 380, "unit": "nm"}, {"measurement": "critical aggregation concentration (CAC)", "setting": "[2]", "value": 50, "unit": "µM"}]}
